T1: eTau-4 peptide
T1 construct: also called synthetic eTau4 polypeptide
T1 peptide: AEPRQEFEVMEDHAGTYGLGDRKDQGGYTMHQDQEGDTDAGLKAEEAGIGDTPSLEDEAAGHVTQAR

T2: eTau 2
T2 construct: member of the group m9
T2 polypeptide: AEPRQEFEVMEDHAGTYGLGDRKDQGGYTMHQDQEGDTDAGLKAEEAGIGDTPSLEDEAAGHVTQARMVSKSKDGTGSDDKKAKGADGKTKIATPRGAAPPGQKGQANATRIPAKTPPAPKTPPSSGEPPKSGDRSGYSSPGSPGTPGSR

T3: eTau 1b
T3 construct: member of the group m9
T3 polypeptide: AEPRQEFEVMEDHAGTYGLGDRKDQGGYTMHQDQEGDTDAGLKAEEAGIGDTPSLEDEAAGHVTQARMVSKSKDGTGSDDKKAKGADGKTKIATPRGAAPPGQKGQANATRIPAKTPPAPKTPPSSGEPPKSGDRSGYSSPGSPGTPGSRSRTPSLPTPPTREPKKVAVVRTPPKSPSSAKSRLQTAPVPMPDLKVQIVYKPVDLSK


Legend:
[1] = biological target: eTau 4 (FIG. 17); assay: relative binding affinity, method not named (Table 4); fifth column, headed eTau 4
[2] = biological target: T1, eTau-4 peptide; assay: relative binding affinity, method not named (Table 4); sixth column, headed eTau 4
[3] = biological target: T2, eTau 2; assay: relative binding affinity, method not named (Table 4)
[4] = biological target: T4, 383 amino acid recombinant tau (UniProt P10636-6 1-383, biotinylated where printed as biotin-rTau383 (position not given)); assay: as above
T4 construct: also called rTau383

[5] = biological target: T3, eTau 1b; assay: as above
[6] = biological target: eTau1a (amino acids 2-166 of fetal tau) (Homo sapiens (Human), UniProt P10636 2-541); assay: as above
[7] = biological target: T4, 383 amino acid recombinant tau; assay: Octet

T4 sequence (P10636 other isoform, or with tags, fused parts or gaps limits assumed): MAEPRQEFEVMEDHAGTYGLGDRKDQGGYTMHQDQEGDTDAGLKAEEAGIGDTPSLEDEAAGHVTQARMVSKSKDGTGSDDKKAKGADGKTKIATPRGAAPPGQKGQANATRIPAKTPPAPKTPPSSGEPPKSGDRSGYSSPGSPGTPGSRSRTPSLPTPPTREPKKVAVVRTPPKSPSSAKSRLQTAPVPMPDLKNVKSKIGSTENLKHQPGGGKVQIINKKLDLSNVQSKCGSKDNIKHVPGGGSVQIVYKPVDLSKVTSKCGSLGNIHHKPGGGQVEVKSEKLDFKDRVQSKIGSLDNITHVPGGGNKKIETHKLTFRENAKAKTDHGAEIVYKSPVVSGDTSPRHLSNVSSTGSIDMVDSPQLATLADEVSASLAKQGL

| Binder | Kd [1] | Kd [2] | Kd [3] | Kd [4] | Kd [5] | Kd [6] | Kd [7] | koff [7] | kon [7] |
| --- | --- | --- | --- | --- | --- | --- | --- | --- | --- |
| VH4/Vk3 (antibody, V domains shown, member of the group m7; also called humanized IPN002 variant VH4/Vk3) VH: EVQLVESGGALVKPGGSLRLSCAASGFSFSKYGMSWVRQAPGKGLEWVATISSSGSRTYYPDSVKGRFTISRDNAKNTLYLQMNSLRAEDTAMYYCAISWDGAMDYWGQGTTVTVSS VL: DVVMTQSPLSLPVTLGQPASISCKSSQSIVHSNGNTYLEWYLQKPGQSPQLLVYKVSNRFSGVPDRFSGSGSGTDFTLKISRVEAEDVGVYYCFQGSLVPWAFGGGTKVEIK | 0.636 nM | 0.629 nM | 0.473 nM | 0.276 nM | 0.313 nM | 0.178 nM | 0.571 nM | 9.39e-05 s⁻¹ | 164000 M⁻¹ s⁻¹ |
| VH4/Vk4 (antibody, V domains shown, member of the group m7; also called humanized IPN002 variant VH4/Vk4) VH: EVQLVESGGALVKPGGSLRLSCAASGFSFSKYGMSWVRQAPGKGLEWVATISSSGSRTYYPDSVKGRFTISRDNAKNTLYLQMNSLRAEDTAMYYCAISWDGAMDYWGQGTTVTVSS VL: DVVMTQSPLSLPVTLGQPASISCKSSQSIVHSNGNTYLEWYLQKPGQSPQLLIYKVSNRFSGVPDRFSGSGSGTDFTLKISRVEAEDVGVYYCFQGSLVPWAFGGGTKVEIK | 0.462 nM | 1.03 nM | 0.564 nM | 0.379 nM | 0.535 nM | 0.325 nM | 0.812 nM | 0.000126 s⁻¹ | 156000 M⁻¹ s⁻¹ |
| humanized IPN002 variant VH2/Vk3 (antibody, V domains shown) VH: EVHLVESGGALVKPGGSLRLSCAASGFSFSKYGMSWVRQAPGKGLEWVATISSSGSRTYYPDSVKGRFTISRDNAKNTLYLQMNSLRAEDTAMYYCSISWDGAMDYWGQGTTVTVSS VL: DVVMTQSPLSLPVTLGQPASISCKSSQSIVHSNGNTYLEWYLQKPGQSPQLLVYKVSNRFSGVPDRFSGSGSGTDFTLKISRVEAEDVGVYYCFQGSLVPWAFGGGTKVEIK | 0.219 nM | 0.411 nM | 0.261 nM | 0.223 nM | 0.287 nM | 0.327 nM | 1.73 nM | 0.000232 s⁻¹ | 134000 M⁻¹ s⁻¹ |

— patent US20160122421A1 (IPIERIAN, published 2016)
